What was measured:
[1] = system: T1, mutated cdc2 peptide with Phe-15 substituted for Tyr-15 (IEKIGEGTFGVVYK)
T1 sequence: IEKIGEGTFGVVYK

[2] = biological target: cdc2 peptide (amino acids 7 to 20; …); test: cell-based or functional assay

Row | Substance | phosphorylation of the mutated cdc2 peptide (Tyr-15 to Phe-15) by anti-Lyn immune complexes [1] | phosphorylation of the cdc2 peptide by anti-Lyn immune complexes from MMC-treated cells against control cells [2] [fold]
1 | p56/p53^lyn tyrosine kinase | there was little phosphorylation of the mutated cdc2 peptide with anti-Lyn complexes from control or MMC-treated cells | 
2 | p56/p53^lyn tyrosine kinase (from UniProt P07948 2-512) (enzyme) |  | 2
